# From US20130059781A1 (Novo Nordisk, published 2013)
# Numbered stars: 1 amine (or outer) side, 2 acyl side, 3 side chain; on linkers, the order of the positions; unused ones are H or OH. Side chains are listed from the residue outwards. Ends that are not written are not given here. * marks the point of attachment. C18 diacid = O=C(O)CCCCCCCCCCCCCCCCC(=O)*; γGlu = O=C(O)[C@H](CCC(=O)[*:2])N[*:1]; AEEA = NCCOCCOCC(=O)O
# B1: N-α-#-Gastrin-17 (16-17) (peptide)
# peptide: {C18 diacid-γGlu-AEEA-AEEA}-Asp-Phe-NH2
# SMILES: NC(=O)[C@H](Cc1ccccc1)NC(=O)[C@H](CC(=O)O)NC(=O)COCCOCCNC(=O)COCCOCCNC(=O)CC[C@H](NC(=O)CCCCCCCCCCCCCCCCC(=O)O)C(=O)O
# B2: N-α-#-[Leu15] Gastrin-17 (15-17) (peptide)
# peptide: {C18 diacid-γGlu-AEEA-AEEA}-Leu-Asp-Phe-NH2
# SMILES: CC(C)C[C@H](NC(=O)COCCOCCNC(=O)COCCOCCNC(=O)CC[C@H](NC(=O)CCCCCCCCCCCCCCCCC(=O)O)C(=O)O)C(=O)N[C@@H](CC(=O)O)C(=O)N[C@@H](Cc1ccccc1)C(N)=O
# B3: N-α-#-[Leu15] Gastrin-17 (13-17) (peptide)
# peptide: {C18 diacid-γGlu-AEEA-AEEA}-GWLDF-NH2
# SMILES: CC(C)C[C@H](NC(=O)[C@H](Cc1c[nH]c2ccccc12)NC(=O)CNC(=O)COCCOCCNC(=O)COCCOCCNC(=O)CC[C@H](NC(=O)CCCCCCCCCCCCCCCCC(=O)O)C(=O)O)C(=O)N[C@@H](CC(=O)O)C(=O)N[C@@H](Cc1ccccc1)C(N)=O
# B4: N-α-#-[Leu15] Gastrin-17 (14-17) (peptide)
# peptide: {C18 diacid-γGlu-AEEA-AEEA}-WLDF-NH2
# SMILES: CC(C)C[C@H](NC(=O)[C@H](Cc1c[nH]c2ccccc12)NC(=O)COCCOCCNC(=O)COCCOCCNC(=O)CC[C@H](NC(=O)CCCCCCCCCCCCCCCCC(=O)O)C(=O)O)C(=O)N[C@@H](CC(=O)O)C(=O)N[C@@H](Cc1ccccc1)C(N)=O
# Target: CCK2 receptor (gastrin receptor)
# Test: cell-based or functional assay
row,Relative Receptor Potency,Binder
1,0,"QGPWLEEEEEAYGWLK([AEEA-AEEA-γGlu-C18 diacid])F-NH2 (ends and bridges not checked) [[Lys16(N-ε-#),Leu15] Gastrin-17]"
2,60,"QGK([AEEA-AEEA-γGlu-C18 diacid])WLEEEEEAYGWLDF-NH2 (ends and bridges not checked) [[Lys3(N-ε-#),Leu15] Gastrin-17]"
3,5,"QGPWLEEEEEAYK([AEEA-AEEA-γGlu-C18 diacid])WLDF-NH2 (ends and bridges not checked) [[Lys13(N-ε-#),Leu15] Gastrin-17]"
4,6,"QGPWLEEEEEAK([AEEA-AEEA-γGlu-C18 diacid])GWLDF-NH2 (ends and bridges not checked) [[Lys12(N-ε-#),Leu15] Gastrin-17]"
5,0,"QGPWLEEEEEAYGWLDK([AEEA-AEEA-γGlu-C18 diacid])-NH2 (ends and bridges not checked) [[Lys17(N-ε-#), Leu 15] Gastrin-17]"
6,0,"QGPWLEEEEEAYGK([AEEA-AEEA-γGlu-C18 diacid])LDF-NH2 (ends and bridges not checked) [[Lys14(N-ε-#),Leu15] Gastrin-17]"
7,0,QGPWLEEEEEAYGWK([AEEA-AEEA-γGlu-C18 diacid])DF-NH2 (ends and bridges not checked) [[Lys15(N-ε-#)] Gastrin-17]
8,57,{C18 diacid-γGlu-AEEA-AEEA}-QGPWLEEEEEAYGWLDF-NH2 (ends and bridges not checked) [N-α-#-[Leu15] Gastrin-17]
9,30,"QGPK([AEEA-AEEA-γGlu-C18 diacid])LEEEEEAYGWLDF-NH2 (ends and bridges not checked) [[Lys4(N-ε-#),Leu15] Gastrin-17]"
10,100,QGPWLEEEEEAYGWLDF-NH2 (ends and bridges not checked) [[Leu15] Gastrin-17]
11,40,"QGPWLK([AEEA-AEEA-γGlu-C18 diacid])EEEEAYGWLDF-NH2 (ends and bridges not checked) [[Lys6(N-ε-#),Leu15] Gastrin-17]"

# Target: CCK2 receptor (gastrin receptor)
# Test: cell-based or functional assay
# Remark: another data set of the same source
row,Relative Receptor Potency,Binder
1,0,B1
2,0,B2
3,6,B3
4,7,{C18 diacid-γGlu-AEEA-AEEA}-YGWLDF-NH2 (ends and bridges not checked) [N-α-#-[Leu15] Gastrin-17 (12-17)]
5,0,B4
6,39,{C18 diacid-γGlu-AEEA-AEEA}-EEEEAYGWLDF-NH2 (ends and bridges not checked) [N-α-#-[Leu15] Gastrin-17 (7-17)]
7,76,{C18 diacid-γGlu-AEEA-AEEA}-QGPWLEEEEEAYGWLDF-NH2 (ends and bridges not checked) [N-α-#-[Leu15] Gastrin-17]
8,58,{C18 diacid-γGlu-AEEA-AEEA}-WLEEEEEAYGWLDF-NH2 (ends and bridges not checked) [N-α-#-[Leu15] Gastrin-17 (4-17)]
9,30,{C18 diacid-γGlu-AEEA-AEEA}-EEAYGWLDF-NH2 (ends and bridges not checked) [N-α-#-[Leu15] Gastrin-17 (9-17)]
10,100,QGPWLEEEEEAYGWLDF-NH2 (ends and bridges not checked) [[Leu15] Gastrin-17]
